# Measured values reported in the RNAGym collection of RNA variant scans (doi:10.7554/elife.80360).
# B1: Hammerhead Ribozyme (parent)
# chain: ACCGGAUGUGCUUUCCGGUCUGAUGAGUCCGUGAGGACGAAACAG
# Variants of: B1
# Test: self-cleavage, relative activity (ratio to wild type); higher = more cleavage; co-transcriptional
row,Variant,self-cleavage
1,ACCGGAUGUGCUUUCCGAUCUGAUGAGCCCGUGAGGACGAAACAG [G18A U28C],0.388
2,ACCGGAUGUGCUUUCCGAUCUGAUGAGGCCGUGAGGACGAAACAG [G18A U28G],0.542
3,ACCGGAUGUGCUUUCCGAUCUGAUGAGACCGUGAGGACGAAACAG [G18A U28A],0.475
4,ACCGGAUGUGCUUUCCGAUCUGAUGAGUCCGUGAGCACGAAACAG [G18A G36C],0.299
5,ACCGGAUGUGCUUUCCGAUCUGAUGAGUCCGUGAGAACGAAACAG [G18A G36A],0.544
6,ACCGGAUGUGCUUUCCGAUCUGAUGAGUCCGUGAGUACGAAACAG [G18A G36U],0.496
7,ACCGGAUGUGCUUUCCGAUCUGAUGAGUCCGUUAGGACGAAACAG [G18A G33U],0.726
8,ACCGGAUGUGCUUUCCGAUCUGAUGAGUCCGUCAGGACGAAACAG [G18A G33C],0.635
9,ACCGGAUGUGCUUUCCGAUCUGAUGAGUCCGUAAGGACGAAACAG [G18A G33A],0.873
10,ACCGGAUGUGCUUUCCGAUCUGAUGAGUCCGUGAGGACUAAACAG [G18A G39U],0.303
11,ACCGGAUGUGCUUUCCGAUCUGAUGAGUCCGUGAGGACCAAACAG [G18A G39C],0.326
12,ACCGGAUGUGCUUUCCGAUCUGAUGAGUCCGUGAGGACAAAACAG [G18A G39A],0.339
13,ACCGGAUGUGCUUUCCGAUCUGAUGAGUCCGUGAGGACGAAAGAG [G18A C43G],0.28
14,ACCGGAUGUGCUUUCCGAUCUGAUGAGUCCGUGAGGACGAAAUAG [G18A C43U],0.285
15,ACCGGAUGUGCUUUCCGAUCUGAUGAGUCCGUGAGGACGAAAAAG [G18A C43A],0.299
16,ACCGGAUGUGCUUUCCGAACUGAUGAGUCCGUGAGGACGAAACAG [G18A U19A],0.367
17,ACCGGAUGUGCUUUCCGAGCUGAUGAGUCCGUGAGGACGAAACAG [G18A U19G],0.359
18,ACCGGAUGUGCUUUCCGACCUGAUGAGUCCGUGAGGACGAAACAG [G18A U19C],0.402
19,ACCGGAUGUGCUUUCCGAUCAGAUGAGUCCGUGAGGACGAAACAG [G18A U21A],0.401

row,Variant,self-cleavage
1,ACCGGAUGUGCUUUCCGAUCCGAUGAGUCCGUGAGGACGAAACAG [G18A U21C],0.396
2,ACCGGAUGUGCUUUCCGAUCGGAUGAGUCCGUGAGGACGAAACAG [G18A U21G],0.404
3,ACCGGAUGUGCUUUCCGAUCUGAUAAGUCCGUGAGGACGAAACAG [G18A G25A],0.281
4,ACCGGAUGUGCUUUCCGAUCUGAUCAGUCCGUGAGGACGAAACAG [G18A G25C],0.332
5,ACCGGAUGUGCUUUCCGAUCUGAUUAGUCCGUGAGGACGAAACAG [G18A G25U],0.348
6,ACCGGAUGUGCUUUCCGCUCUGGUGAGUCCGUGAGGACGAAACAG [G18C A23G],0.379
7,ACCGGAUGUGCUUUCCGCUCUGUUGAGUCCGUGAGGACGAAACAG [G18C A23U],0.32
8,ACCGGAUGUGCUUUCCGCUCUGCUGAGUCCGUGAGGACGAAACAG [G18C A23C],0.298
9,ACCGGAUGUGCUUUCCGAUGUGAUGAGUCCGUGAGGACGAAACAG [G18A C20G],0.367
10,ACCGGAUGUGCUUUCCGAUUUGAUGAGUCCGUGAGGACGAAACAG [G18A C20U],0.312
11,ACCGGAUGUGCUUUCCGAUAUGAUGAGUCCGUGAGGACGAAACAG [G18A C20A],0.326
12,ACCGGAUGUGCUUUCCGAUCUGAUGAAUCCGUGAGGACGAAACAG [G18A G27A],0.519
13,ACCGGAUGUGCUUUCCGAUCUGAUGACUCCGUGAGGACGAAACAG [G18A G27C],0.43
14,ACCGGAUGUGCUUUCCGAUCUGAUGAUUCCGUGAGGACGAAACAG [G18A G27U],0.393
15,ACCGGAUGUGCUUUCCGAUCUGAUGAGUCCGUGAGGACGAAACCG [G18A A44C],0.479
16,ACCGGAUGUGCUUUCCGAUCUGAUGAGUCCGUGAGGACGAAACUG [G18A A44U],0.433
17,ACCGGAUGUGCUUUCCGAUCUGAUGAGUCCGUGAGGACGAAACGG [G18A A44G],0.702
18,ACCGGAUGUGCUUUCCGAUCUGAUGAGUCCGUGAGGACGUAACAG [G18A A40U],0.288
19,ACCGGAUGUGCUUUCCGAUCUGAUGAGUCCGUGAGGACGGAACAG [G18A A40G],0.351

row,Variant,self-cleavage
1,ACCGGAUGUGCUUUCCGAUCUGAUGAGUCCGUGAGGACGCAACAG [G18A A40C],0.308
2,ACCGGAUGUGCUUUCCGCUCUGAUGUGUCCGUGAGGACGAAACAG [G18C A26U],0.334
3,ACCGGAUGUGCUUUCCGCUCUGAUGGGUCCGUGAGGACGAAACAG [G18C A26G],0.319
4,ACCGGAUGUGCUUUCCGCUCUGAUGCGUCCGUGAGGACGAAACAG [G18C A26C],0.354
5,ACCGGAUGUGCUUUCCGAUCUGAUGAGUCCGUGCGGACGAAACAG [G18A A34C],0.537
6,ACCGGAUGUGCUUUCCGAUCUGAUGAGUCCGUGGGGACGAAACAG [G18A A34G],0.562
7,ACCGGAUGUGCUUUCCGAUCUGAUGAGUCCGUGUGGACGAAACAG [G18A A34U],0.515
8,ACCGGAUGUGCUUUCCGAUCUGAUGAGUCCGUGAGGAGGAAACAG [G18A C38G],0.453
9,ACCGGAUGUGCUUUCCGAUCUGAUGAGUCCGUGAGGAAGAAACAG [G18A C38A],0.596
10,ACCGGAUGUGCUUUCCGAUCUGAUGAGUCCGUGAGGAUGAAACAG [G18A C38U],0.531
11,ACCGGAUGUGCUUUCCGCUCUGAUGAGUCCGUGGGGACGAAACAG [G18C A34G],0.422
12,ACCGGAUGUGCUUUCCGCUCUGAUGAGUCCGUGCGGACGAAACAG [G18C A34C],0.36
13,ACCGGAUGUGCUUUCCGCUCUGAUGAGUCCGUGUGGACGAAACAG [G18C A34U],0.409
14,ACCGGAUGUGCUUUCCGCUCUGAUGAGUCCGUGAGGACGAAACCG [G18C A44C],0.435
15,ACCGGAUGUGCUUUCCGCUCUGAUGAGUCCGUGAGGACGAAACGG [G18C A44G],0.643
16,ACCGGAUGUGCUUUCCGCUCUGAUGAGUCCGUGAGGACGAAACUG [G18C A44U],0.354
17,ACCGGAUGUGCUUUCCGAUCUGAUGAGUCCGCGAGGACGAAACAG [G18A U32C],0.731
18,ACCGGAUGUGCUUUCCGAUCUGAUGAGUCCGGGAGGACGAAACAG [G18A U32G],0.744
19,ACCGGAUGUGCUUUCCGAUCUGAUGAGUCCGAGAGGACGAAACAG [G18A U32A],0.778
